Laboratory results: paper PMC6392501

Legend:
[1] = target: C-terminal coiled-coil of hTMEM266 (residues 224–289) (human) (UniProt Q2M3C6); experiment: non-reducing SDS-PAGE; purified coiled-coil run on SDS-PAGE with or without 2-ME; single species (monomer) with 2-ME, additional band at ~15 kDa without
[2] = target: C-terminal twin-Strep-tagged hTMEM266 (human) (UniProt Q2M3C6); experiment: cross-linking; DSS (varying concentration) applied to intact HEK 293T cells expressing Strep-tagged hTMEM266; membrane fractions on SDS-PAGE; Western blot with anti-Strep antibody
[3] = target: C-terminal twin-Strep-tagged hTMEM266 (human) (UniProt Q2M3C6); experiment: cross-linking; air oxidation (disulfide) of membrane fractions of HEK 293T cells expressing Strep-tagged hTMEM266; 10 mM NEM; SDS-PAGE with or without 2-ME; Western blot with anti-Strep antibody

stoichiometry N [1] | stoichiometry N [2] | stoichiometry N [3] | Substance
2 | – | – | C-terminal coiled-coil of hTMEM266 (residues 224–289) (from UniProt Q2M3C6 224-289) (domain or fragment)
– | 2 | 2 | C-terminal twin-Strep-tagged hTMEM266 (from UniProt Q2M3C6 1-523) (natural protein)
